Data set [1] concerns FMRP (His-tagged recombinant). Briefly: EMSA competition. The conditions noted are these: vs 32P-N19; EMSA or filter binding as in ref 4, with K+ or Na+; buffer, pH and temperature not in the material.
The subject of data set [2] is FMRP (His-tagged recombinant). Briefly: filter binding competition. The settings on record: vs 32P-N19; EMSA or filter binding as in ref 4, with K+ or Na+; buffer, pH and temperature not in the material.
For data set [3], the system named is FXR1P Isoe. Briefly: filter binding competition. The settings on record: self-competition, 32P-Sod1; EMSA or filter binding as in ref 4, with K+ or Na+; buffer, pH and temperature not in the material. For orientation: A gel shift assay detects complexes by their altered migration in electrophoresis.

Usually IC50 stands for the concentration needed to halve the response being measured.

Regarding Sod1 full-length mRNA, the binding signal (% competition at 5 nM) in data set [1] was 65. Also, the IC50 in data set [2] was determined as 3 nM; in data set [3], 20 nM.
As to Sod1-5' region, the IC50 in data set [2] came to 3 nM.

Values taken from article PMC2628407.
